# Measured values taken from publication PMC5382584, “In search of tail-anchored protein machinery in plants: reevaluating the role of arsenite transporters” (Scientific Reports, 2017).
# Where “and” joins values, the source holds several entries; their conditions need not be identical. Identical values can stand only once.
# Biological target: the molecule itself
# Assay: SEC; preparative size-exclusion chromatography of the purified protein, Superdex-200-16/600GL column; oligomeric state from peak positions
protein,measurement,value
"Cr-ArsA2 (C. reinhardtii ArsA2), recombinant, purified (natural protein, UniProt A8IXB8 1-362, looked up, ArsA2 of Chlamydomonas reinhardtii, full-length open reading frame, one ATPase domain; pET21 modified with a TEV site between the N-terminal 6His-tag and the polylinker; Seen as dimers and tetramers; also called Dimeric Cr-ArsA2; arsenite transporter ArsA2; source: E. coli BL21 (DE3), purified (Ni-NTA, size-exclusion chromatography)) MAADMPDPTLQNVVDQKELKWIFVGGKGGVGKTTTSSSLAVALAESGTRNRVLIISTDPAHNLSDAFRQKFTKTPTLVNGFTNLFAMEVDPQPDIGEMEQLEWAQDSFLTELAGSIPGIDEAMSFAEVMKQVQTMDYDTIVFDTAPTGHTLRLLNFPTILEKGLSKLVALKGAMGGMMGQVTRMLGGMAGGGEGAADLPDQLLGKVEGMLDVVRKVSAQFKDPLLTTFVAVCIPEFLSLYETERLVQELAKFEIDCRNIVINQIIFPESVGGSRLLDARVRMQQKYLDQFYELYEDFHILQLPLLEEEVRGPEALKAFAVNLLKPYVPAPPTDAAARQAALVSEVAALKKRVAELEAALAKK",stoichiometry N,2 and 4
